These are literature values, as cited in paper PMC2920229.

Some results are limits rather than exact numbers.

The target of this data set is HIV-1 protease (Human immunodeficiency virus 1) (UniProt O93215).

As to HIV-1 protease (from UniProt O93215), the Kd was below 5 nM.
